Measured values from publication doi:10.1101/2022.12.30.522300 (bioRxiv, 2022).

Legend:
[1] = target: RBM17–UHM (RBM17/ΔNΔG), from pETM11 (human); experiment: ITC
[2] = target: T1, full-length RBM17, from pETM11 (human, UniProt Q96I25 1-401); experiment: NMR titration
T1 sequence (looked up): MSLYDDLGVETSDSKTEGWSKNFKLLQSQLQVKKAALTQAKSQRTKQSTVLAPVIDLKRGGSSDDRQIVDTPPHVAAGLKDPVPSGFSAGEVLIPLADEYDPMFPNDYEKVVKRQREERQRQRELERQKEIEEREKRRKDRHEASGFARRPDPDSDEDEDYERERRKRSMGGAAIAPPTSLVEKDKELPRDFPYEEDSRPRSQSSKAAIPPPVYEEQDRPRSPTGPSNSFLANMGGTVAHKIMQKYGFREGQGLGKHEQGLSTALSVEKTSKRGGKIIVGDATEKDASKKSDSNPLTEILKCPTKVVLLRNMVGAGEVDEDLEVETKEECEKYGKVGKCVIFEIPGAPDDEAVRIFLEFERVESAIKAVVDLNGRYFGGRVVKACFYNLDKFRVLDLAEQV

GST-RBM17 = target: T2, GST-RBM17 (human, UniProt Q96I25 1-401); experiment: pull-down
T2 sequence (looked up): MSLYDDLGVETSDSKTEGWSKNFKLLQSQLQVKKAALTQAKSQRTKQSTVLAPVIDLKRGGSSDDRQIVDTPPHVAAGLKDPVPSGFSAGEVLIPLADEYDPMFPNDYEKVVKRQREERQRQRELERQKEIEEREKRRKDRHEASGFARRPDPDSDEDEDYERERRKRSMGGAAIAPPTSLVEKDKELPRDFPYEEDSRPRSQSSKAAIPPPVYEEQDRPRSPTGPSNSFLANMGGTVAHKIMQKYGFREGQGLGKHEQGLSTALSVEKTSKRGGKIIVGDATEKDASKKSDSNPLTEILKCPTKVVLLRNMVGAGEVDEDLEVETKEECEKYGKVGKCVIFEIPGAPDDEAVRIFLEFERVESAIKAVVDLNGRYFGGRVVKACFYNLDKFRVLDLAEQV

SAP30BP/ULM (domain or fragment)
Kd [1]: 34.4 µM

B1: full-length SAP30BP, from pETM11 (natural protein, human, UniProt Q9UHR5 1-308, looked up)
chain: MAGKKNVLSSLAVYAEDSEPESDGEAGIEAVGSAAEEKGGLVSDAYGEDDFSRLGGDEDGYEEEEDENSRQSEDDDSETEKPEADDPKDNTEAEKRDPQELVASFSERVRNMSPDEIKIPPEPPGRCSNHLQDKIQKLYERKIKEGMDMNYIIQRKKEFRNPSIYEKLIQFCAIDELGTNYPKDMFDPHGWSEDSYYEALAKAQKIEMDKLEKAKKERTKIEFVTGTKKGTTTNATSTTTTTASTAVADAQKRKSKWDSAIPVTTIAQPTILTTTATLPAVVTVTTSASGSKTTVISAVGTIVKKAKQ
binding result [2]: binds

B2: recombinant SAP30BP (GST tag removed) (natural protein, human, UniProt Q9UHR5 1-308, looked up)
chain: MAGKKNVLSSLAVYAEDSEPESDGEAGIEAVGSAAEEKGGLVSDAYGEDDFSRLGGDEDGYEEEEDENSRQSEDDDSETEKPEADDPKDNTEAEKRDPQELVASFSERVRNMSPDEIKIPPEPPGRCSNHLQDKIQKLYERKIKEGMDMNYIIQRKKEFRNPSIYEKLIQFCAIDELGTNYPKDMFDPHGWSEDSYYEALAKAQKIEMDKLEKAKKERTKIEFVTGTKKGTTTNATSTTTTTASTAVADAQKRKSKWDSAIPVTTIAQPTILTTTATLPAVVTVTTSASGSKTTVISAVGTIVKKAKQ
binding result (GST-RBM17): binds
